Patent publication US8729028B2, “Noggin-derived peptide and use thereof” (Caregen Co., Ltd., priority 2009, dated 2014)
Where no end group is shown, it is not given here. The star is where a group is joined. Biotin = O=C1N[C@H]2[C@H](CS[C@H]2CCCCC(=O)*)N1

Columns and labels:
HaCaT keratinocytes = test: SRB colorimetric assay of cellular growth, keratinocytes; assay type: cell-based; settings: peptide 100 ng/mL, 72 hours, SRB absorbance 590 nm and microscopy (FIGS. 2a, 3)
Experimental: (§1) To analyze the growth factor-like effect of the peptide synthesized in Synthesis Example, sulforhodamine B (SRB) calorimetric assay was carried out using HaCaT keratinocytes (Korean Cell Line Bank) and NIH3T3 fibroblasts (Korean Cell Line Bank) according to Rizzino et al.'s method (Rizzino et al. Cancer Res. 48: 4266 (1988)).
(§2) HaCaT keratinocytes and NIH3T3 fibroblasts were cultured respectively in a 250-mL tissue culture flask in Eagle's minimal essential media (EMEM; Gibco, U.S.A.) containing 10% fetal bovine serum (FBS; Sigma). The cultured cells were treated with 0.25% trypsin solution to detach the cells from the bottom of the culture flask and centrifuged to collect cell pellets. They were resuspended in FBS-free EMEM and added to each well of a 96-well tissue culture plate, with 4×10^3 cells per well. The cells were cultured under 7% CO2 for 24 hours at 37° C. 24 hours later, the medium was changed with fresh, FBS-containing medium and the cells were incubated for 72 hours under the same conditions as described above with blank sample as reference or with the sterilized synthetic peptide (100 ng/mL) dissolved in water and 10% DMSO. After removing the supernatant, the cells were washed once with phosphate buffered saline (PBS). […] In addition, absorbance was measured at 590 nm to analyze cell proliferation.

BMP-4 = target: T1, BMP-4 (Homo sapiens, UniProt P12644); test: Melanin production in α-MSH-induced, BMP-4-treated melanocytes (antagonistic activity against BMP-4); assay type: cell-based; settings: for melanin production: C57BL/6 mouse melanocytes, 200 μg/mL α-MSH, 1 μg/mL BMP-4, cultured 3 days, observed with naked eyes (FIG. 5)
T1 construct: purchased R&D Systems, Inc., USA
T1 sequence (P12644 293-408): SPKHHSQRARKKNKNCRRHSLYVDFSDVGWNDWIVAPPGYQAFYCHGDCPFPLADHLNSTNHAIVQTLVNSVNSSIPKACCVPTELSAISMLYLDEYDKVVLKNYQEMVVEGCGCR
Experimental: In order to investigate the antagonistic activity of the peptide synthesized in Synthesis Example against the growth factor BMP-4, C57BL/6 mouse melanocytes (Jung Ang Lab. Animal, Korea) were cultured and melanin production was induced with α-melanocyte stimulating hormone (α-MSH; Sigma). Then, after treating with BMP-4 (R&D Systems, Inc., USA) and then immediately with the synthesized peptide at different concentrations, it was checked whether the melanin production inhibited by BMP was activated again. The mouse melanocytes were cultured using DMEM (Sigma) containing 10% FBS (Sigma) at 37° C. under 5% CO2. After culturing the cells on a 24-well plate at 1×10^5 cells/well and confirming attachment of the cells, the cells were treated only with a solvent (control), with 200 μg/mL α-MSH (positive control) or with 1 μg/mL BMP-4. Then, the cells were treated with the peptide of SEQ ID NO: 1. After adding the test substance to each dish, the cells were cultured for 3 days. The test substance had been prepared by dissolving the ingredients in a solvent and diluting to the test concentration using a 5:3:2 mixture solvent of propylene glycol:ethanol:purified water. After removing the medium by centrifugation, the production of melanin could be observed with naked eyes.
For more accurate measurement, cells were washed with PBS and lysed with 1 N sodium hydroxide. Then, after measuring absorbance at 400 nm, inhibition of melanin production was calculated according to the Dooley's method (Dooley, T. P. et al., Skin Pharmacol. 7: 188-200 (1994)), and the result was shown in FIG. 6. The result shown in FIG. 6 coincides with that of FIG. 5.

rh-BMP4 protein [1] = target: T2, rh-BMP4 protein (Homo sapiens, UniProt P12644); test: Streptavidin chromatography with SDS-PAGE and western blot (immunobinding to BMP4); assay type: binding; settings: streptavidin column, elution with NaCl, western blot with anti-BMP4 antibody (FIG. 8b)
T2 construct: purchased R&D Systems, Inc., USA
T2 sequence (P12644 293-408): T1 sequence (P12644 293-408)
Experimental: The N-terminus of the peptide prepared in Synthesis Example was modified with biotin (Sigma, USA). For streptavidin chromatography, the biotinylated peptide was loaded in a column packed with streptavidin-attached resin and equilibrated with 20 mM sodium phosphate buffer. Then, after flowing rh-BMP4 protein (R&D Systems, Inc., USA) through the column, 200 mM sodium phosphate buffer was flown to flush unbound protein and the protein bound to the biotinylated peptide was fractionated by eluting with 0.2 M NaCl. The eluate was analyzed by SDS-PAGE (see FIG. 8a) and it was confirmed whether the BMP4 protein binds with the biotinylated peptide by western blotting using anti-BMP4 antibody (Santa Cruz, USA) (see FIG. 8b).

[2] = Thermal stability at 37° C. in phosphate buffer, HPLC quantification; assay type: physicochemical; settings: 0.11 mg/mL phosphate buffer, days 0-70, compared with reference Noggin (FIG. 9)
Experimental: The peptide prepared in Synthesis Example and a reference growth factor (Noggin, FGF-10) purchased from NIBSC (UK) were prepared to 0.11 mg/mL phosphate buffer solutions. 1 mL of each prepared solution was put in a glass vial and kept at 37° C. The solution was sampled on days 0, 5, 10, 20, 30, 40 and 70. After centrifugation to remove any denatured peptide or protein, the supernatant was subjected to HPLC for quantification (FIG. 9).

C57BL/6 mouse = test: Hair growth on depilated back skin of mouse; assay type: in vivo; settings: C57BL/6 mouse back, 10 μL of 1 μg/μL on days 0, 2 and 4, observed for 10 days, against PBS (FIG. 10)
Experimental: In order to investigate the hair growth promoting effect of the peptide synthesized in Synthesis Example, hair of the back of a mouse (C57BL/6, Jung Ang Lab. Animal, Korea) was partially removed using hair removal cream. 10 μL of the peptide of SEQ ID NO: 1 (1 μg/μL) was administered or applied on the upper portion of the back of the mouse, and 10 μL of PBS was administered or applied on the lower portion of the back of the mouse, on days 0, 2 and 4.

NIH3T3 fibroblasts = test: SRB colorimetric assay of cellular growth, fibroblasts; assay type: cell-based; settings: NIH3T3, peptide 100 ng/mL, 72 hours, SRB absorbance 590 nm and microscopy (FIGS. 2b, 3)
Experimental: as §1, §2

HaCaT cells = test: Laminin and hyaluronic acid production (ELISA kits); assay type: cell-based; settings: 72 hours after treatment
Experimental: HaCaT cells cultured for 48 hours were treated with the peptide synthesized in Synthesis Example. 72 hours later, the level of laminin and hyaluronic acid was measured as an indicator to show the improvement in skin wrinkles. The measurement was made using a laminin ELISA kit (Takara, Japan) and a hyaluronic acid ELISA kit (Takara, Japan).

rh-BMP4 protein [3] = target: T2, rh-BMP4 protein; test: Biacore binding of peptide to immobilised BMP4; settings: CM5 sensor chip, 6000 RU rh-BMP4, peptide 4-1000 μg/mL (FIG. 7)
Experimental: (§3) In order to investigate whether the peptide synthesized according to the present disclosure binds to the BMP protein, the Biacore instrument allowing the detection of binding between drugs and receptors was used.
(§4) 6000 response units (RU) of rh-BMP4 protein (R&D Systems, Inc., USA) was fixed to a commercially available CM5 sensor chip (Biacore, Sweden) by amination. Then, HBS-EP buffer (Biacore, Sweden) was flown at a rate of 5 μL/min to activate the BMP4 protein on the CM5 sensor chip. After optimization for reaction, the synthesized peptide was flown at different concentrations (1000 μg/mL, 500 μg/mL, 250 μg/mL, 125 μg/mL, 62.5 μg/mL, 31.3 μg/mL, 15.6 μg/mL, 7.8 μg/mL, 4 μg/mL). The binding between BMP4 and the synthetic peptide could be identified from the increase in RU value.

[4] = target: T3, rh-BMP4 protein (R&D Systems, Inc., USA) (human, UniProt P12644 293-408); test: SPR (Biacore), rh-BMP4 fixed on a CM5 chip, peptide flown at 4-1000 µg/mL
T3 construct: Bought protein; also called BMP protein
T3 sequence (looked up): T1 sequence (P12644 293-408)
Experimental: as §3, §4

Glu-Leu-Ile-Glu-His (SEQ ID NO:2)-Linker-Arg-Pro-Ala-Asp (SEQ ID NO:3) peptide (linker=Gly-Gly-Gly) (ELIEHGGGRPAD; listed as Homo sapiens) [SEQ ID NO: 1, noggin-derived peptide]
growth of keratinocytes (HaCaT keratinocytes): promote the growth | melanin production (BMP-4): melanin production comparable to that of the α-MSH-treated group | BMP-4 activity (BMP-4; inferred from restored melanin production in BMP-4-treated mouse melanocytes (FIG. 5)): appropriately inhibits the BMP-4 activity | binding of BMP4 protein to peptide (rh-BMP4 protein [1]): very strongly binds | thermal stability [2]: much superior thermal stability to the existing noggin peptide | hair growth (C57BL/6 mouse): effective in promoting hair growth | growth of fibroblasts (NIH3T3 fibroblasts): promote the growth | production of hyaluronic acid (HaCaT cells; hyaluronic acid ELISA kit (FIG. 4b)): increases the production | production of laminin (HaCaT cells; laminin ELISA kit (FIG. 4a)): increases the production | binding to BMP4 (increase in RU value) (rh-BMP4 protein [3]): very strong binding ability

biotinylated peptide: The N-terminus of the peptide prepared in Synthesis Example was modified with biotin (Biotin-ELIEHGGGRPAD)
binding of BMP4 protein to peptide (rh-BMP4 protein [1]): bound

α-melanocyte stimulating hormone [α-MSH, reference compound]
melanin production (BMP-4): abrupt increase in melanin production

B1: Glu-Leu-Ile-Glu-His (SEQ ID NO:2)-Linker-Arg-Pro-Ala-Asp (SEQ ID NO:3) peptide (linker=Gly-Gly-Gly) (SEQ ID NO:1) (peptide)
peptide: ELIEHGGGRPAD
notes: Made by solid-phase synthesis; The synthesis text describes an acetylation step with acetic anhydride after the last Fmoc removal; However, the printed theoretical weight of 1250.35 matches the peptide without an acetyl group, so no N-terminal acetyl is entered; also called synthesized peptide
binding result [4]: binds
